Earlier results on one substance are cited in paper PMC6721559.

This data set concerns the target Ubc9 (Homo sapiens) (UniProt P63279).
UniProt P63279, sequence (P63279 2-158): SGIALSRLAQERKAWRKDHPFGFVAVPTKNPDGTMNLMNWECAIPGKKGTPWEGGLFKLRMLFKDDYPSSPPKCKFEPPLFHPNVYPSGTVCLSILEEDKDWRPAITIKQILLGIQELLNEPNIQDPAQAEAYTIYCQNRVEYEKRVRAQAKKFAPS

With SUMO (from UniProt P63165), the Kd was 82 nM.

By Kd is commonly meant the equilibrium constant for the complex coming apart.
